Experimental findings from patent US20150011462A1 (Novo Nordisk, published 2015) are described below.

The labels stand for the following.
B1: N{Alpha}([Aib8,Glu22,Arg26,Arg34]-GLP-1-(7-37)-peptidyl)-N{Epsilon}[2-[2-[2-[[2-[2-[2-[[2-[2-[2-[[2-[2-[2-[[2-[2-[2-[[(2S)-2-amino-6-[[(2S)-2-amino-6-(19-carbox … (peptide)
peptide: H[Aib]EGTFTSDVSSYLEEQAAREFIAWLVRGRGK([AEEA-AEEA-AEEA-AEEA-AEEA-εLys-εLys-C20 diacid])GGSK([AEEA-AEEA-AEEA-AEEA-AEEA-εLys-εLys-C20 diacid])
notes: Double-acylated, C-terminally extended GLP-1 analogue made by SPPS; also called 27
B2: N{Alpha}Aib8,Glu22,Arg26,Arg34]-GLP-1-(7-37)-peptidyl)-N{Epsilon}[2-[2-[2-[[2-[2-[2-[[(4S)-4-carboxy-4-[[4-[(21-carboxyhenicosanoylamino)methyl]cyclohexanecarbo … (peptide)
peptide: H[Aib]EGTFTSDVSSYLEEQAAREFIAWLVRGRGK([AEEA-AEEA-γGlu-Trx-C22 diacid])GGSK([AEEA-AEEA-γGlu-Trx-C22 diacid])
notes: Double-acylated, C-terminally extended GLP-1 analogue made by SPPS
B3: N{Alpha}([Aib8,Glu22,Arg26,Arg34]-GLP-1-(7-37)-peptidyl)-N{Epsilon}[(2S)-2-amino-6-[[(2S)-2-amino-6-[[(4S)-4-carboxy-4-[[4-[(19-carboxynonadecanoylamino)methyl] … (peptide)
peptide: H[Aib]EGTFTSDVSSYLEEQAAREFIAWLVRGRGK([εLys-εLys-γGlu-Trx-C20 diacid])GGSK([εLys-εLys-γGlu-Trx-C20 diacid])
notes: as for B2
B4: N{Alpha}([Aib8,Glu22,Arg26,Arg34]-GLP-1-(7-37)-peptidyl)-N{Epsilon}[2-[2-[2-[[2-[2-[2-[[2-[2-[2-[[2-[2-[2-[[2-[2-[2-[[2-[2-[2-[[(2S)-2-amino-6-[[(2S)-2-amino-6- … (peptide)
peptide: H[Aib]EGTFTSDVSSYLEEQAAREFIAWLVRGRGK([AEEA-AEEA-AEEA-AEEA-AEEA-AEEA-εLys-εLys-C20 diacid])GGSK([AEEA-AEEA-AEEA-AEEA-AEEA-AEEA-εLys-εLys-C20 diacid])
notes: Double-acylated, C-terminally extended GLP-1 analogue made by SPPS; also called 28

Numbered stars: 1 amine (or outer) side, 2 acyl side, 3 side chain; on linkers, the order of the positions; unused ones are H or OH. Square brackets hold non-standard residues; d marks the D form. Side chains are listed from the residue outwards. Ends that are not written are not given here. * marks the point of attachment. C22 diacid = O=C(O)CCCCCCCCCCCCCCCCCCCCC(=O)*; C20 diacid = O=C(O)CCCCCCCCCCCCCCCCCCC(=O)*; γGlu = O=C(O)[C@H](CCC(=O)[*:2])N[*:1]; εLys = N[C@@H](CCCCN[*:1])C(=O)[*:2]; Trx = NC[C@H]1CC[C@H](C(=O)O)CC1; AEEA = NCCOCCOCC(=O)O; Aib = CC(C)(N)C(=O)O

The target in one assay is T1, human GLP-1 receptor (human, UniProt P43220 24-463).
T1 construct: whole, on cells
Put plainly: competitive binding (SPA): displacement of 125I-GLP-1(7-36)NH2 from BHK cell membranes with human GLP-1 receptor; high HSA (2.0% final).
Description: (§1) For the receptor binding assay in the presence of low HSA (0.005%) 50 μl of the assay buffer was added to each well of an assay plate. […] For the receptor binding assay in the presence of high HSA (2%) 50 μl of the 8% albumin stock was added to each well of an assay plate. […] Cell membrane aliquots were thawed and diluted to their working concentration. Fifty μl were added to each well in the assay plate. […] WGA SPA beads were suspended in assay buffer at 20 mg/ml. The suspension was diluted to 10 mg/ml in assay buffer just prior to addition to the assay plate. Fifty μl were added to each well in the assay plate. […] A 25 μl aliquot was reserved for measuring total counts/well. […] The assay plate was incubated for 2 h at 30° C. […] The assay plate was centrifuged for 10 min. […] The assay plate was read in a Packard TopCount NXT instrument.
As usually defined, the IC50 is the point on the concentration scale where inhibition reaches its midpoint. Take B1: the IC50 came out at 30 nM. That is a double-digit nanomolar value.
On the same count and under the same terms, to B2 belongs 21 nM; to B3, 197 nM; to B4, 30 nM.

Another assay deals with T1, human GLP-1 receptor. Kind of assay: competitive binding (SPA): displacement of 125I-GLP-1(7-36)NH2 from BHK cell membranes with human GLP-1 receptor; low HSA (max. 0.001% final).
Description: as §1
In the case of B1, the IC50 came out at 0.08 nM.
Same read-out and setting: with B2 the figure was 1.6 nM; with B3, 2.2 nM; with B4, 0.05 nM.

The target in a further assay is T1, human GLP-1 receptor. Put plainly: cell-based or functional assay.
As to B1, the “EC50 (pM), in vitro potency, CRE luciferase reporter gene assay in BHK cells expressing the human GLP-1 receptor” value was 4.4 pM.
On the same count and under the same terms, to B2 belongs 101 pM; to B3, 381 pM; to B4, 3.4 pM.
